In paper PMC8322138, “BRCA2 binding through a cryptic repeated motif to HSF2BP oligomers does not impact meiotic recombination” (Nature Communications, 2021):
Substitutions are numbered along the chain they refer to. In names and notes the source's numbering stands. Several values for one entry are separate records, joined by “and”; a condition that tells them apart may be missing. Equal values may be shown once.

B1: N243H: GFP-HSF2BP point mutant (protein)
chain: MGEAGAAEEACRHMGTKEEFVKVRKKDLERLTTEVMQIRDFLPRILNGEVLESFQKLKIVEKNLERKEQELEQLKMDCEHFKARLETVQADNIREKKEKLALRQQLNEAKQQLLQQAEYCTEMGAAACTLLWGVSSSEEVVKAILGGDKALKFFSITGQTMESFVKSLDGDVQELDSDESQFVFALAGIVTNVAAIACGREFLVNSSRVLLDTILQLLGDLKPGQCTKLKVLMLMSLYNVSIHLKGLKYISESPGFIPLLWWLLSDPDAEVCLHVLRLVQSVVLEPEVFSKSASEFRSSLPLQRILAMSKSRNPRLQTAAQELLEDLRTLEHNV
modifications: left off: GFP, end not stated, kept
notes: GFP-HSF2BP point mutant
B2: N192R: GFP-HSF2BP point mutant (protein)
chain: B1 chain with N192R, H243N
modifications: left off: GFP, end not stated, kept
notes: GFP-HSF2BP point mutant
B3: R277E: GFP-HSF2BP point mutant (protein)
chain: B1 chain with H243N, R277E
modifications: left off: GFP, end not stated, kept
notes: GFP-HSF2BP point mutant
B4: K245T: GFP-HSF2BP point mutant (protein)
chain: B1 chain with H243N, K245T
modifications: left off: GFP, end not stated, kept
notes: GFP-HSF2BP point mutant
B5: N239K: GFP-HSF2BP point mutant (protein)
chain: B1 chain with N239K, H243N
modifications: left off: GFP, end not stated, kept
notes: GFP-HSF2BP point mutant
B6: Y238A: GFP-HSF2BP point mutant (protein)
chain: B1 chain with Y238A, H243N
modifications: left off: GFP, end not stated, kept
notes: GFP-HSF2BP point mutant
B7: E201A: GFP-HSF2BP point mutant (protein)
chain: B1 chain with E201A, H243N
modifications: left off: GFP, end not stated, kept
notes: GFP-HSF2BP point mutant
B8: M235T: GFP-HSF2BP point mutant (protein)
chain: B1 chain with M235T, H243N
modifications: left off: GFP, end not stated, kept
notes: GFP-HSF2BP point mutant
B9: R200H: GFP-HSF2BP point mutant (protein)
chain: B1 chain with R200H, H243N
modifications: left off: GFP, end not stated, kept
notes: GFP-HSF2BP point mutant
B10: G199D: GFP-HSF2BP point mutant (protein)
chain: B1 chain with G199D, H243N
modifications: left off: GFP, end not stated, kept
notes: GFP-HSF2BP point mutant
B11: R200E: GFP-HSF2BP point mutant (protein)
chain: B1 chain with R200E, H243N
modifications: left off: GFP, end not stated, kept
notes: GFP-HSF2BP point mutant
B12: R200C: GFP-HSF2BP point mutant (protein)
chain: B1 chain with R200C, H243N
modifications: left off: GFP, end not stated, kept
notes: GFP-HSF2BP point mutant
B13: BRCA2: BRCA2 (fragment F0 measured by ITC) (protein)
chain: STYSKDSENYFETEAVEIAKAFMEDDELTDSKLPSHATHSLFTCPENEEMVLSNSRIGKRRGEPLILVGEPSIKRNLLNEFDRIIENQEKSLKASKSTPDGTIKDRRLFMHHVSLEPITTVPFRTTKERQ
B14: Human BRCA2 fragment FNMR (S2252-Q2342) (domain or fragment, UniProt P51587 2252-2342, looked up)
chain: SLFTCPENEEMVLSNSRIGKRRGEPLILVGEPSIKRNLLNEFDRIIENQEKSLKASKSTPDGTIKDRRLFMHHVSLEPITTVPFRTTKERQ
notes: BRCA2, human, residues 2252-2342; produced by the same strategy as F0 (C2332T); C2332T is stated for F0 and 'our construct'; FNMR was made 'using the same strategy'; source: E. coli BL21 DE3 Star, purified (HisTrap, TEV cleavage, SEC); not shown: GB1, C-terminal, cleaved; His6, C-terminal, cleaved

How the values were obtained:
BRCA2 (Flag-F9) = assay: Co-immunoprecipitation of GFP-HSF2BP variants with Flag-BRCA2 F9; format: cell-based, human; conditions: transient HEK293T / stable HeLa, anti-GFP beads, immunoblot
Text: Expression constructs for producing point mutation and truncation variants of HS2BP and BRCA2 in human cells were engineered as described before[16] in the PiggyBac vectors by Gibson assembly. For transient expression into HEK293T cells plasmid DNA was transfected using calcium precipitation method or PEI transfection. For stable integration into HeLa cells, PiggyBac expression vectors were co-lipofected together with PiggyBac transposase plasmid (hyPBase[45]) with Lipofectamine 3000 (Thermo Fisher).
Cells were washed twice in ice-cold PBS and lysed in situ in NETT buffer (100 mM NaCl, 50 mM Tris pH 7.5, 5 mM EDTA pH 8.0, 0.5% Triton-X100) supplemented immediately before use with protease inhibitor cocktail (Roche) and 0.4 mg/ml Pefabloc (Roche) (NETT++); 450 µl NETT++ buffer was used per 145 mm dish ES cells, 1 ml for HeLa and HEK293T. After 5–10 min, cells were scraped off and collected in 1.5 ml microcentrifuge tubes; lysis was continued for additional 20–30 min on ice, then mixtures were centrifuged (15 min, 4 °C, 14,000 × g) and the supernatant (input) was added to washed anti-GFP beads (Chromotek). Beads and lysates were incubated 2–4 h at 4 °C while rotating, washed three times in NETT++ buffer and bound proteins were eluted by boiling in 2x Sample buffer. Immunoblotting was performed following standard procedures with the following antibodies: anti-GFP mAb (Roche, #11814460001), anti-GFP pAb (Abcam #ab290 and Invitrogen #A11122), anti-RAD51[46], anti-BRCA2 mAb Ab1 OP-95 (Millipore #OP95), anti-BRCA2 (Abcam #27976), anti-Flag (M2 antibody, Sigma, F3165 and F1804). For quantitative immunoblotting fluorescently labeled secondary antibodies were used: anti-mouse CF680 (Sigma #SAB460199), anti-rabbit CF770 (Sigma #SAB460215); membranes were scanned using Odyssey CLx imaging system (LI-COR).

HSF2BP FL = target: T1, HSF2BP FL (Homo sapiens, UniProt O75031); assay: ITC of BRCA2 fragments with full-length HSF2BP; format: binding; conditions: discussion statement, read-out: affinity of BRCA2 for HSF2BP
T1 construct: Human full-length HSF2BP WT and R200T were expressed; 6xHis-TEV (N, cleaved yes); made in house; host or cells: E. coli BL21 DE3 Rosetta2
T1 sequence (O75031 1-334): B1 chain with H243N
Text: Human full-length HSF2BP WT and R200T were expressed using a pETM11 (6xHis-TEV) expression vector in E. coli BL21 DE3 Rosetta2 cells, and purified as previously reported (Brandsma et al., Cell Rep 2019). The armadillo domain of HSF2BP, from aa 122 to aa 334, which we will further name ARM, was similarly expressed using a pETM11 (6xHis-TEV) expression vector in BL21 DE3 Rosetta2 cells and purified as full-length HSF2BP.
Human BRCA2 fragment F0 was expressed using a pET-22b expression vector as a fusion protein comprising BRCA2 from aa 2213 to aa 2342 (including mutation C2332T to avoid oxidation problems), a TEV site, a GB1 and 6xHis tag, in E. coli BL21 DE3 Star cells. The BRCA2 gene was optimized for expression in bacteria and synthesized by Genscript. In addition, smaller BRCA2 fragments were produced using the same strategy: FNMR and F15X corresponding to aa 2252 to aa 2342 and aa 2291 to aa 2343, respectively. The smallest fragment F15X∆12, from aa 2312 to aa 2342, was synthesized by Genecust.
ITC experiments were performed using a high-precision VP-ITC instrument (GE Healthcare) at 293 K. To characterize the interactions between HSF2BP and BRCA2 fragments (WT, variants), the proteins were dialyzed against 25 mM Tris pH 7.5, 250 mM NaCl, 5 mM β-mercaptoethanol. The HSF2BP (or ARM domain) was in the sample cell at 10–20 μM and was titrated by BRCA2 fragments at 40–100 μM, using 10 μL injections with 210 s intervals between each injection. The first 2 μL injection was ignored in the final data analysis. The integration of the peaks corresponding to each injection. the correction for the baseline and the fit were performed using the Origin 7.0 software provided by the manufacturer, to obtain the stoichiometry (N), dissociation constant (Kd), and enthalpy of complex formation (ΔH) for each interaction. Two replicates were performed for each experiment.

[1] = target: T2, armadillo domain of HSF2BP, from aa 122 to aa 334 (ARM) (human, UniProt O75031 122-334); assay: ITC; HSF2BP or ARM in the cell at 10-20 uM, BRCA2 fragment in the syringe at 40-100 uM; 293 K; 25 mM Tris pH 7.5, 250 mM NaCl, 5 mM beta-mercaptoethanol; two replicates; conditions: both partners purified
T2 construct: Free ARM is a dimer (SEC-MALS); four ARM with two F15X in the complex; A selenomethionine-labelled form was used for the deposited crystal structure; also called HSF2BP ARM; H3 (recombinant); source: E. coli BL21 DE3 Rosetta2, purified (HisTrap, TEV cleavage, SEC)
T2 sequence (looked up): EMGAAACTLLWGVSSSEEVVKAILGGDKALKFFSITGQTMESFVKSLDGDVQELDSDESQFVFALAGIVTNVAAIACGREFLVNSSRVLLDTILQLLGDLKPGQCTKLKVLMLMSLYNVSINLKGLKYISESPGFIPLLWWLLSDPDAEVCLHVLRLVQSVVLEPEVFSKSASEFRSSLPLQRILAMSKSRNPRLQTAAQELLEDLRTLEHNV

Molecule	binding to BRCA2 (co-precipitation) (BRCA2 (Flag-F9))	also measured
B1	totally abolished binding	binding to BRCA2 (co-precipitation) (BRCA2 (Flag-F9); listed as N243): failed to co-precipitate
B2	totally abolished binding	binding to BRCA2 (co-precipitation) (BRCA2 (Flag-F9); listed as N192): failed to co-precipitate
B3	strongly decreased binding	–
B4	did not impact BRCA2 binding	binding to BRCA2 (co-precipitation) (BRCA2 (Flag-F9); listed as K245): do not decrease binding
B5	totally abolished binding	binding to BRCA2 (co-precipitation) (BRCA2 (Flag-F9); listed as N239): failed to co-precipitate
B6	totally abolished binding	binding to BRCA2 (co-precipitation) (BRCA2 (Flag-F9); listed as Y238): failed to co-precipitate
B7	did not impact BRCA2 binding	binding to BRCA2 (co-precipitation) (BRCA2 (Flag-F9); listed as E201): do not decrease binding
B8	still weakly bound to BRCA2	–
B9	totally abolished binding	–
B10	abolished binding	binding to BRCA2 (co-precipitation) (BRCA2 (Flag-F9); listed as G199): failed to co-precipitate
B11	totally abolished binding	–
B12	totally abolished binding	–
B13	–	Kd (HSF2BP FL): 1 nM
B14	–	Kd [1]: 7.8 nM and 13 nM; dH [1]: -9.6 kcal/mol and -9.4 kcal/mol; stoichiometry N [1]: 0.47 and 0.51
